Source: the Human Domainome abundance scans (Beltran et al. 2025)

B1: POU domain, class 3, transcription factor 2, residues 356 to 411; numbered along this chain, P20265 (parent)
chain: KKRTSIEVSVKGALESHFLKCPKPSAQEITSLADSLQLEKEVVRVWFCNRRQKEKR

Variants of: B1
Assay: abundance fitness (aPCA) (normalised: wild type 0, dead -1); higher = more abundant; growth selection in yeast, the domain comes from the species named
Details: Homo sapiens

Abundance fitness: each site, then its substitutions
K1: M -0.244 | T -0.206 | D 0.082 | I -0.397 | N -0.012 | L -0.498 | G -0.214 | Y -0.382 | S -0.273 | A -0.237 | V -0.072 | R -0.302
T4: R -0.356 | Y -0.209 | L -0.199 | F 0.126 | N -0.032 | Q -0.107 | K -0.267 | C -0.287 | E 0.17 | P -0.101 | H -0.363 | S -0.029 | G -0.198 | D 0.023 | M -0.015 | V -0.095 | W -0.546 | I 0.053
I6: Q -0.226 | P -0.213 | M -0.049 | C -0.172 | F -0.438 | G -0.119 | L 0.045 | E -0.091 | A -0.069 | D -0.072 | Y -0.239 | R -0.117 | W -0.289 | K 0.103 | H -0.247 | S -0.053 | T -0.111
K20: L -0.322 | F -0.175 | H -0.463 | N -0.262 | M -0.336 | P -1.03 | A -0.319 | E -0.445 | D -0.46 | C -0.392 | I -0.215 | G -0.466
L19: R 0.006 | P -0.911 | C -0.114 | K -0.162 | F -0.474 | I -0.113 | S -0.03 | M 0.007 | Y -0.248 | G -0.245 | N -0.075 | E -0.026 | D -0.142 | V -0.056 | T -0.183
S5: Q 0.095 | V 0.229 | R -0.105 | H 0.095 | F -0.053 | A -0.001 | K 0.14 | T 0.173 | Y -0.183 | L 0.002 | C 0.033 | G 0.024 | P 0.007 | D -0.174 | I 0.118 | M -0.018 | W -0.313
E7: S 0.191 | R -0.014 | K -0.112 | H 0.028 | T 0.221 | I -0.116 | G 0.077 | L -0.177 | M 0.032 | C 0.014 | D 0.066 | V -0.21 | N 0.138 | W -0.242 | A -0.039 | Y -0.358
R3: Y 0.026 | C 0.246 | K 0.054 | M 0.031 | T -0.009 | A -0.168 | F -0.021 | L 0.01 | S 0.023 | H 0.002 | G 0.092 | P -0.134 | N 0.13 | V 0.051 | I 0.045 | W -0.273
E15: W -0.822 | P -1.04 | T -0.788 | M -0.649 | D -0.623 | R -1.02 | C -0.612 | Y -0.777 | A -0.88 | N -0.693 | S -0.959 | K -0.83 | Q -0.527 | G -0.885 | I -0.649 | H -0.805
G12: V 0.22 | Y -0.058 | N -0.153 | H -0.015 | T 0.21 | P -0.152 | F -0.085 | K -0.056 | L 0.117 | E 0.079 | C 0.039 | I 0.193 | Q -0.053 | R -0.045 | S 0.097 | D -0.027 | A 0.124 | M 0.068
A13: M 0.024 | T -0.064 | D -0.356 | Y -0.142 | R 0.083 | K 0.081 | F -0.019 | L -0.074 | N -0.211 | G -0.379
